Test results taken from article PMC3698143, “GRG5/AES Interacts with T-Cell Factor 4 (TCF4) and Downregulates Wnt Signaling in Human Cells and Zebrafish Embryos” (PLoS ONE, 2013).

Target: Myc-tagged full-length TCF4 (human, UniProt Q9NQB0-8 1-596)
Assay: cell-based or functional assay

Myc-tagged full-length TCF4, sequence (Q9NQB0 other isoform, or with tags, fused parts or gaps): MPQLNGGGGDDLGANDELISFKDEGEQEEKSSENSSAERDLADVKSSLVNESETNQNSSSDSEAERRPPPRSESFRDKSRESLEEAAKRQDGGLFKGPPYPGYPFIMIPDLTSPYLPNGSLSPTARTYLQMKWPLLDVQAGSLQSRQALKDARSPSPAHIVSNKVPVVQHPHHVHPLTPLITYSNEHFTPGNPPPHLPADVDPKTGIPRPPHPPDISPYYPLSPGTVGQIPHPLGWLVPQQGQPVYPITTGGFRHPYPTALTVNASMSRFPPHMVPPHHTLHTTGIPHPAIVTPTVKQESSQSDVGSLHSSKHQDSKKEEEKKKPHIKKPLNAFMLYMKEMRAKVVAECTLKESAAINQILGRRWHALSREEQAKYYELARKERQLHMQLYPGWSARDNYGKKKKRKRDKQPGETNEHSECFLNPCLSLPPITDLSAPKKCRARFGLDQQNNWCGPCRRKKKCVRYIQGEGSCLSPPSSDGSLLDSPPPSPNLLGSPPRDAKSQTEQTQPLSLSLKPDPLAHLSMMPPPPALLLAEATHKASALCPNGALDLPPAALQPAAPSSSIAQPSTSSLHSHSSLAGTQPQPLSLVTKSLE

B1: HA-epitope-tagged GRG5/AES (natural protein, human, UniProt Q08117 1-197, looked up)
chain: MMFPQSRHSGSSHLPQQLKFTTSDSCDRIKDEFQLLQAQYHSLKLECDKLASEKSEMQRHYVMYYEMSYGLNIEMHKQAEIVKRLNGICAQVLPYLSQEHQQQVLGAIERAKQVTAPELNSIIRQQLQAHQLSQLQALALPLTPLPVGLQPPSLPAVSAGTGLLSLSALGSQAHLSKEDKNGHDGDTHQEDDGEKSD
  TCF-Luc luciferase reporter in HEK293 cells with transfected β-catenin: repression on co-transfection of GRG5/AES and dnTCF4 plasmids (0.4 µg each), against a 6.3-fold additive effect of each alone: 22.5 fold
